Results: patent US20090317391A1 (Novartis, published 2009)

Molecular target: T1, SEMA4D-V5 (expressed from pDESTSEMA4D-V5) (UniProt Q92854 22-862, limits assumed)
T1 construct: Control membrane protein co-transfected in 293T cells
T1 sequence (looked up): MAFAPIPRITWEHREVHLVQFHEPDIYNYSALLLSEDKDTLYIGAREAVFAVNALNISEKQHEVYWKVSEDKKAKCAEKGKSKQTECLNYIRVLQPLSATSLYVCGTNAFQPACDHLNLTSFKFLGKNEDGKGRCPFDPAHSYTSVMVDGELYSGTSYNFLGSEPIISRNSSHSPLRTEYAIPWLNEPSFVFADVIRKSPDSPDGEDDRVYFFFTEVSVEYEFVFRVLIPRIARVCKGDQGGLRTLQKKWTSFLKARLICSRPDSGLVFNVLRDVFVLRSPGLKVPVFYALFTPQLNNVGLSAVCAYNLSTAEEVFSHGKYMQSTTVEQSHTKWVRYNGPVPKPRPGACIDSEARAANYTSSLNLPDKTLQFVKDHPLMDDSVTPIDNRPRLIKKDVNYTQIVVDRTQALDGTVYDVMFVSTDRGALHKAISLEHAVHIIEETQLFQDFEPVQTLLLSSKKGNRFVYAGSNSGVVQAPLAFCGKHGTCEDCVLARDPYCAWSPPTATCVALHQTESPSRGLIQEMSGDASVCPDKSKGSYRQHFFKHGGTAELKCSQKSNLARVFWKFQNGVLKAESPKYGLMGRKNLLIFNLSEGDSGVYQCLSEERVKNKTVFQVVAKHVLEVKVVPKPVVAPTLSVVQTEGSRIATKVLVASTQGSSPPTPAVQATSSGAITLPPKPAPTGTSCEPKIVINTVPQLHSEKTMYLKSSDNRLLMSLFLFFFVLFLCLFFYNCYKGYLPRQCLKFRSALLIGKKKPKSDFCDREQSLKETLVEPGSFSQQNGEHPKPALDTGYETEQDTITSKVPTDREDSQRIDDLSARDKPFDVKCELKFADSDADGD
Assay: co-immunoprecipitation (anti-HA or anti-V5) and western blot from lysates of co-transfected 293T cells
Experimental: Cells were harvested 72-hours later by scraping in 1 ml PBS. The pellets were lyzed on ice for 60 mins. in 500 ul lysis buffer: 50 mM Tris-HCl; pH7.5, 150 mM NaCl, 1 mM EDTA, 1% NP40, 0.25% Deoxycholate, 50 mMNaF, 20 mM Na3OV4 and protease inhibitors. 1 mM PMSF (0.3M stock solution in DMSO) was added to the lysis buffer before use. DNA was sheared with a needle. Lysates were then spun down for 10 mins. at 14,000 rpm. 200 ul cell lysates were incubated, overnight at 4° C. with gentle rocking, with lug of either rabbit polyclonal antibody to HA or V5 epitope tag (abcam; ab9110-100 and ab9116-100, respectively).
The next morning, a suspension protein A/G (50:50) agarose beads was washed twice in PBS then in lysis buffer. The beads (50% slurry) were incubated on ice in the lysis buffer for one hour. 30 ul of the proteinA/G suspension were added to the lysates and the mixture incubated for 4 hours at 4° C. with gentle rocking. Beads were then washed 3 times with 1 ml lysis buffer. Beads were resuspended in 30 μl sample buffer.
After protein transfer to membrane blots. Membranes were blocked over-night in PBST-5% Milk. The next day blots of the immunoprecipitation with V5 antibody were incubated with HA hybridoma supernatant (dilution 1:1000) for 1 hour whereas blots of the immunoprecipitation with HA antibody were incubated with V5-HRP (dilution 1:5000)

- binding result: no binding
B1: HA-tm-PTPε (expressed from pDisplayHA tm-PTPε-FL#9) (receptor, not shown: small tags and cut ends)
chain: LRGNETTADSNETTTTSGPPDPGASQPLLAWLLLPLLLLLLVLLLAAYFFRFRKQRKAVVSTSDKKMPNGILEEQEQQRVMLLSRSPSGPKKYFPIPVEHLEEEIRIRSADDCKQFREEFNSLPSGHIQGTFELANKEENREKNRYPNILPNDHSRVILSQLDGIPCSDYINASYIDGYKEKNKFIAAQGPKQETVNDFWRMVWEQKSATIVMLTNLKERKEEKCHQYWPDQGCWTYGNIRVCVEDCVVLVDYTIRKFCIQPQLPDGCKAPRLVSQLHFTSWPDFGVPFTPIGMLKFLKKVKTLNPVHAGPIVVHCSAGVGRTGTFIVIDAMMAMMHAEQKVDVFEFVSRIRNQRPQMVQTDMQYTFIYQALLEYYLYGDTELDVSSLEKHLQTMHGTTTHFDKIGLEEEFRKLTNVRIMKENMRTGNLPANMKKARVIQIIPYDFNRVILSMKRGQEYTDYINASFIDGYRQKDYFIATQGPLAHTVEDFWRMIWEWKSHTIVMLTEVQEREQDKCYQYWPTEGSVTHGEITIEIKNDTLSEAISIRDFLVTLNQPQARQEEQVRVVRQFHFHGWPEIGIPAEGKGMIDLIAAVQKQQQQTGNHPITVHCSAGAGRTGTFIALSNILERVKAEGLLDVFQAVKSLRLQRPHMVQTLEQYEFCYKVVQDFIDIFSDYANFK
notes: Transiently expressed in 293T cells and tested from cell lysates; The tag is placed N-terminal on the strength of the name
